Assay [1] addresses T1, recombinant human PCSK9 (human, UniProt Q8NBP7 31-692).
T1 construct: also called hPCSK9
Nature of the assay: ELISA, blocking: biotinylated human PCSK9 (0.4nM) binding to immobilized human LDLR extracellular domain, pH7.5. The method, then:
(§1) ELISA plates (Corning Mixisorb) were coated with a solution of 1 μg/ml recombinant LDLR extracellular domain (R&D Systems) in each well at 4 C overnight, blocked with 2% BSA+PBS for 2 hrs at room temperature, and then washed 5 times with washing buffer (1×PBS+0.05% Tween-20). Wells were incubated with 50 μl of indicated concentrations of biotinylated PCSK9 protein for 1 hr RT. LDLR-PCSK9 binding can be stabilized by adding 50 μl of 4% FDH+4% sucrose+PBS solution and incubate for 5 min. Wells were washed 5 times with washing buffer, incubated with 1:2000 dilution of HRP conjugated Strepavidin (Invitrogen) for 1 hr at RT, washed 5 times with washing buffer. TMB substrate was added to the wells, the solution was incubated 20 to 30 min at RT, and the reaction was terminated using 1 M phosphoric acid. Signals were read at 450 nm.

Another assay has as its target rat PCSK9 in plasma (rat, UniProt P59996 31-691). Briefly: antibody incubated with plasma, complexes purified and probed by Western blot. How it is done:
To determine the species specificity of the anti-PCSK9 antibodies, antibodies were incubated with plasma from different species and the resultant complexes were purified and probed by an independent anti PCSK9 antibody on Western blots. […] Id.

In assay [2] the target is T2, recombinant mouse PCSK9 (mouse, UniProt Q80W65 35-694).
T2 construct: also called mPCSK9; murine PCSK9
Nature of the assay: SPR (Biacore 3000); full-length IgG captured on anti-mouse IgG, PCSK9 injected. The method, then: (§2) The affinities of PCSK9 antibodies to PCSK9 were measured on a surface plasmon resonance Biacore 3000 biosensor equipped with a research-grade sensor chip using HBS-EP running buffer (Biacore AB, Uppsala, Sweden—now GE Healthcare). Rabbit polyclonal anti-Ms IgGs were amine-coupled at saturating levels onto the chip using a standard N-hydroxysuccinimide/ethyldimethylaminopropyl carbodiimide (NHS/EDC) chemistry. The buffer was switched to HBS-EP+1 mg/mL BSA+1 mg/mL CM-dextran.
(§3) Dissociation was monitored for 5 min. The chip was regenerated after the last injection of each titration with two 30 sec pulses of 100 mM phosphoric acid. Buffer cycles provided blanks for double-referencing the data, which were then fit globally to a simple binding model using Biaevaluation software v.4.1. Affinities were deduced from the quotient of the kinetic rate constants (KD=koff/kₒₙ).

In assay [3] the target is T1, recombinant human PCSK9. Described as above. The method, then:
as §2, §3

Assay [4] concerns the target T2, recombinant mouse PCSK9. Briefly: competition ELISA; antibody blocks biotinylated PCSK9 binding to immobilized recombinant LDLR extracellular domain.
Assay [5] deals with T1, recombinant human PCSK9. Described as above.
Assay [6] concerns the target T2, recombinant mouse PCSK9. Briefly: ELISA, blocking: biotinylated mouse PCSK9 (0.8nM) binding to immobilized human LDLR extracellular domain, pH7.5. How it is done:
as §1

In assay [7] the target is T1, recombinant human PCSK9. Nature of the assay: TR-FRET in solution at neutral pH: biotinylated human PCSK9 (30 nM) binding to Europium labeled LDLR extracellular domain (10 nM) blocked by the mAb.
In assay [8] the target is T3, PCSK9.
T3 construct: neither names the species

Assay [9] addresses T2, recombinant mouse PCSK9. Nature of the assay: Biacore; format not described.
Assay [10] has as its target T1, recombinant human PCSK9. Nature of the assay: Biacore; format not described.
Assay [11] deals with T3, PCSK9. This is another data set of the same source.

From patent US20100068199A1 (RINAT NEUROSCIENCE, published 2010) come the findings set out here.

Where two headings read alike, the source gives them in different places.

T1 sequence (Q8NBP7 31-692 limits assumed): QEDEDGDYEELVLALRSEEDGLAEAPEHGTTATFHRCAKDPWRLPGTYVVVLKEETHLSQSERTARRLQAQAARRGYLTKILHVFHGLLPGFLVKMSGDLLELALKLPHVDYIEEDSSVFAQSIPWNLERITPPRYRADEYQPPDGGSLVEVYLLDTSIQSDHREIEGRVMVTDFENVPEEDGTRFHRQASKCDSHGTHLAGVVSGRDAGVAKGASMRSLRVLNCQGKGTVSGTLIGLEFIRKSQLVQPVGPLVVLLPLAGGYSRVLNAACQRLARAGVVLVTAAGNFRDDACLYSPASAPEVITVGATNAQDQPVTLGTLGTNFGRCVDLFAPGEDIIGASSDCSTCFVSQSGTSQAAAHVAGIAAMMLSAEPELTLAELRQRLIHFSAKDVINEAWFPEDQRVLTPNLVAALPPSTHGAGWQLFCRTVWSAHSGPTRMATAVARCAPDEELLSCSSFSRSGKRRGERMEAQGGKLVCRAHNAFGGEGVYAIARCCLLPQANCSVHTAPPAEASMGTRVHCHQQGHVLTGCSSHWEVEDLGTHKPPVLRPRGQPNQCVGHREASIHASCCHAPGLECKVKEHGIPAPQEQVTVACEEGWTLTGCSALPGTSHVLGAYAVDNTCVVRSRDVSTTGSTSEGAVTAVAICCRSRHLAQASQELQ
T2 sequence (Q80W65 other isoform, or with tags, fused parts or gaps limits assumed): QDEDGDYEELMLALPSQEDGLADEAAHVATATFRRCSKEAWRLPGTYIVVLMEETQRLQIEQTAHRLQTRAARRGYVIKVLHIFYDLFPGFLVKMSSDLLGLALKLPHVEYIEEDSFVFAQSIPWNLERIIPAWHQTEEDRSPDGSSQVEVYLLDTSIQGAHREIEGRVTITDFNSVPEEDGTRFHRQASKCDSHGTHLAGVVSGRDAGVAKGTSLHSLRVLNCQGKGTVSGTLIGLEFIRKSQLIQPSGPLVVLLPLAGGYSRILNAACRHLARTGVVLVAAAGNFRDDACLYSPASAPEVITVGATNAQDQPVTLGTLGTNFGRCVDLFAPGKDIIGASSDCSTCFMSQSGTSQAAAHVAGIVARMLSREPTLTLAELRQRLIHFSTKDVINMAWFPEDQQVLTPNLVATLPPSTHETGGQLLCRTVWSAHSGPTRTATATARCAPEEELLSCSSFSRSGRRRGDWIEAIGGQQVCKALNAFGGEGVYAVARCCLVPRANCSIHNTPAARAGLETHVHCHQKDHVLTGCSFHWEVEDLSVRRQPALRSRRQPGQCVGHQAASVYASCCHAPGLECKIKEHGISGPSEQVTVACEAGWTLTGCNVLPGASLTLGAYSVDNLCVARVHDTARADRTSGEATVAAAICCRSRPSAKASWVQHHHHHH
Chain of rat PCSK9 in plasma (P59996 31-691 limits assumed): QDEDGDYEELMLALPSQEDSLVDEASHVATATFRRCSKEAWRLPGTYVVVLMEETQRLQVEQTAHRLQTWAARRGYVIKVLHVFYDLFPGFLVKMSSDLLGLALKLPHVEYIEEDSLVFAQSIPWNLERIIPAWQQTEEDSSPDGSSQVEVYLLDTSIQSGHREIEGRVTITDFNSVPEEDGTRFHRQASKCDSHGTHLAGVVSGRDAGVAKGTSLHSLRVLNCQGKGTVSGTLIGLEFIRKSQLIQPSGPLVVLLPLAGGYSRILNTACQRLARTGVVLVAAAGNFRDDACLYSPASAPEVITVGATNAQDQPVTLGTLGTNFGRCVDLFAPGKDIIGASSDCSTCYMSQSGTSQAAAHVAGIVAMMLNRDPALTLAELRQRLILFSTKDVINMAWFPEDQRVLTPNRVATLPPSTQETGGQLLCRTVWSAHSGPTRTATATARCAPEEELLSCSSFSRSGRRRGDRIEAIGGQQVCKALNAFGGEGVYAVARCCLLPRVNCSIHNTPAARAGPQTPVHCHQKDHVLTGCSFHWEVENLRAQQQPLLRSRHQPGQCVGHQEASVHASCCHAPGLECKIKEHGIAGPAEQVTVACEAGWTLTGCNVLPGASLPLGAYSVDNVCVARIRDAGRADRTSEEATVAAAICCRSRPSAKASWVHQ
T3 sequence (prodomain, as listed by the source limits assumed, chain 1 of 2): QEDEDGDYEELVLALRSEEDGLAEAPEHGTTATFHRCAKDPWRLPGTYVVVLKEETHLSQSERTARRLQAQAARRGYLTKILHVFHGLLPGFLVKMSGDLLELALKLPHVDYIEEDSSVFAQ
T3 sequence (chain, as listed by the source limits assumed, chain 2 of 2): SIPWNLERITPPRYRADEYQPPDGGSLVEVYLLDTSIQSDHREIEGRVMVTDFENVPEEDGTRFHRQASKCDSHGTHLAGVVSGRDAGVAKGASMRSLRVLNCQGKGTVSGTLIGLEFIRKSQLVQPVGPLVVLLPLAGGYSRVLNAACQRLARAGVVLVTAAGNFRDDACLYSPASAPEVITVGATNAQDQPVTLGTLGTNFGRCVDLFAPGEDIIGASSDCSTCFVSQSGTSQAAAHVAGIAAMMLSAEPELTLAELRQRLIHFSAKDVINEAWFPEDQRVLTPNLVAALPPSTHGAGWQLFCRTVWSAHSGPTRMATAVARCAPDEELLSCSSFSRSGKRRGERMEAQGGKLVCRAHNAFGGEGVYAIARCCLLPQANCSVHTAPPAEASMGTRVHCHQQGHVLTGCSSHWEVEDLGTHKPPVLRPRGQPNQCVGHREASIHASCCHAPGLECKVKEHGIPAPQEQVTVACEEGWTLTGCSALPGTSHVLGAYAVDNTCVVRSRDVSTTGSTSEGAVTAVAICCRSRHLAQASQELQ

B1: anti-PCSK9 antagonist monoclonal antibody 6F6 (antibody, V domains shown)
VH: EVQLQQSGPELVKPGASVKISCKASGYTFTDYYMNWVKQSHGKSLEWIGDINPNNGGTSYNQKFKGKATLTVDKSSSTAYMELRSLTSEDSAVYYCAGGGIYYRYDRNYFDYWGQGTTLTVSS
VL: DIQMTQTTSSLSASLGDRVTISCSASQGISNYLNWYQQKPDGTVKLLIYYTSSLHSGVPSRFSGSGSGTDYSLTISNLEPEDIATYYCQQYSKLPFTFGSGTKLEIK
notes: Murine full-length IgG from a hybridoma; also called 6F6.G10.3 (subclone); ATCC PTA-8984
As to B1, the “IC50 (read off the curve)” value is roughly 2 nM in the assay with recombinant human PCSK9 [1] and roughly 10 nM in the assay with recombinant mouse PCSK9 [6]. Also, in the assay with rat PCSK9 in plasma, the binding result is “binds”. The Kd came to 17.7 nM in the assay with recombinant mouse PCSK9 [2] and 6.4 nM with recombinant human PCSK9 [3]. Moreover, the koff was found to be 0.00197 s⁻¹ with recombinant mouse PCSK9 [2] and 0.000584 s⁻¹ with recombinant human PCSK9 [3]. Besides, the kon in the assay with recombinant mouse PCSK9 [2] was determined as 111000 M⁻¹ s⁻¹; with recombinant human PCSK9 [3], 91500 M⁻¹ s⁻¹. Further, the IC50 with recombinant mouse PCSK9 [4] turned out to be 10 nM; with recombinant human PCSK9 [5] it was 1.5 nM; with recombinant human PCSK9 [7] it was 6.5 nM.

B2: anti-PCSK9 antagonist monoclonal antibody 7D4 (antibody, V domains shown)
VH: EVKLVESEGGLVQPGSSMKLSCTASGFTFSDYYMAWVRQVPEKGLEWVANINYDGSNTSYLDSLKSRFIISRDNAKNILYLQMSSLKSEDTATYYCAREKFAAMDYWGQGTSVTVSS
VL: DIVMTQSHKFMSTSFGDRVSITCKASQDVSNALAWYQQKPGHSPKLLIFSASYRYTGVPDRFTGSGSGTDFTFTISSVQAEDLAVYYCQQHYSTPWTFGGGTKLEIKR
notes: Murine full-length IgG from a hybridoma; also called 7D4.4 (subclone); ATCC PTA-8983
As to B2, the “IC50 (read off the curve)” value in the assay with recombinant human PCSK9 [1] was roughly 1 nM; with recombinant mouse PCSK9 [6], roughly 0.9 nM. For the same molecule, the binding result with rat PCSK9 in plasma is “binds”. Moreover, the Kd with recombinant mouse PCSK9 [2] amounted to 1.3 nM; with recombinant human PCSK9 [3], 6.4 nM. Moreover, the koff with recombinant human PCSK9 [3] came out at 0.000794 s⁻¹. Also, in the assay with recombinant human PCSK9 [3], the kon is 125000 M⁻¹ s⁻¹. The half-inhibitory concentration (IC50) was found to be 1 nM in the assay with recombinant mouse PCSK9 [4], 1.5 nM with recombinant human PCSK9 [5] and 5.4 nM with recombinant human PCSK9 [7].

B3: anti-PCSK9 antagonist monoclonal antibody 5A10 (antibody, V domains shown)
VH: QVQLQQPGAELVKPGASVKLSCKASGYTFTSYWMHWVKQRPGQGLEWIGEINPSNGRTNYNEKFKSKATLTVDKSSSTAYMQLSSLTSEDSAVYYCARERPLYAMDYWGQGTSVTVSS
VL: DIVMTQSHKFMSTSVGDRVSITCKASQDVSTAVAWYQQKPGQSPKLLIYSASYRYTGVPDRFTGSGSGTDFTFTISSVQAEDLAVYYCQQRYSTPRTFGGGTKLEIKR
notes: Murine full-length IgG from a hybridoma; Mouse precursor of L1L3; also called 5A10.B8 (subclone)
For the molecule B3, the “IC50 (read off the curve)” value with recombinant human PCSK9 [1] is roughly 0.3 nM; with recombinant mouse PCSK9 [6], roughly 3 nM. The binding result with rat PCSK9 in plasma is recorded as “binds”. In addition, the dissociation constant (Kd) in the assay with recombinant mouse PCSK9 [2] was 3.9 nM; with recombinant human PCSK9 [3] it was 1 nM; with PCSK9 [8], 1.1 nM. In addition, the koff was 0.000489 s⁻¹ with recombinant mouse PCSK9 [2] and 8.55e-05 s⁻¹ with recombinant human PCSK9 [3]. For the same molecule, the kon with recombinant mouse PCSK9 [2] turned out to be 127000 M⁻¹ s⁻¹; in the assay with recombinant human PCSK9 [3], 84700 M⁻¹ s⁻¹. The half-maximal inhibitory concentration (IC50) amounted to 3 nM with recombinant mouse PCSK9 [4], 0.4 nM in the assay with recombinant human PCSK9 [5] and 6 nM in the assay with recombinant human PCSK9 [7].

B4: L1L3 humanized anti-PCSK9 monoclonal antibody (antibody, V domains shown)
VH: QVQLVQSGAEVKKPGASVKVSCKASGYTFTSYYMHWVRQAPGQGLEWMGEISPFGGRTNYNEKFKSRVTMTRDTSTSTVYMELSSLRSEDTAVYYCARERPLYASDLWGQGTTVTVSS
VL: DIQMTQSPSSLSASVGDRVTITCRASQGISSALAWYQQKPGKAPKLLIYSASYRYTGVPSRFSGSGSGTDFTFTISSLQPEDIATYYCQQRYSLWRTFGQGTKLEIKR
For the molecule B4, the Kd with recombinant mouse PCSK9 [9] amounted to 0.2 nM; with recombinant human PCSK9 [10], 0.1 nM; with PCSK9 [11], 0.007 nM.

B5: anti-PCSK9 antagonist monoclonal antibody 4A5 (antibody, V domains shown)
VH: EVQLQQSGPELVKPGASVKISCKASGYTFTDYYMNWVKQSHGKSLEWIGDINPNNGGTTYNQKFKGKATLTVDKSYSTAYMELRSLTSEDSAVYYCARWLLFAYWGQGTLVTVSA
VL: DIVMTQSQKFMSTSVGDRVSVTCKASQNVGTNVAWYQQKPGQSPKALIYSASYRYSGVPDRFTGSGSGTDFTLTISNVLSEDLAEYFCQQFYSYPYTFGGGTKLEIKR
notes: Murine full-length IgG from a hybridoma; also called 4A5.G3 (subclone); ATCC PTA-8985
For B5, the “IC50 (read off the curve)” value was roughly 0.2 nM with recombinant human PCSK9 [1] and roughly 3 nM in the assay with recombinant mouse PCSK9 [6]. The binding result with rat PCSK9 in plasma is recorded as “binds”. For the same molecule, the dissociation constant (Kd) with recombinant mouse PCSK9 [2] was 5.1 nM; with recombinant human PCSK9 [3] it was 2.8 nM. Also, the koff with recombinant mouse PCSK9 [2] came to 0.00072 s⁻¹; with recombinant human PCSK9 [3], 0.000189 s⁻¹. Moreover, the on-rate constant (kon) with recombinant mouse PCSK9 [2] is 141000 M⁻¹ s⁻¹; with recombinant human PCSK9 [3], 66600 M⁻¹ s⁻¹. Further, the figures for the IC50 in the assay with recombinant mouse PCSK9 [4], with recombinant human PCSK9 [5] and with recombinant human PCSK9 [7] were 3 nM, 0.4 nM and 7.1 nM, respectively.
